Laboratory results: patent publication US8445240B2, “Termite enzymes and uses thereof for in vitro conversion of lignin-containing materials to fermentable products” (University of Florida Research Foundation, Inc., priority 2009, dated 2013)

Experiments:
[1] = Colorimetric β-1,4-endoglucanase assay of Cell-1 on CMC; format: biochemical; details: BEVS-expressed; 100 mM sodium acetate pH 6.5, 25° C.
Description: Colorimetric β-1,4-endoglucanase enzyme assays: Six total substrates were tested: CMC (carboxymethyl cellulose), pNPG (p-nitrophenyl-beta-D-glucopyranoside), pNPC2 (p-nitrophenyl-beta-D-cellobioside), pNPC3 (p-nitrophenyl-beta-D-cellotrioside), pNPC4 (p-nitrophenyl-beta-D-cellotetraoside), and pNPC5 (p-nitrophenyl-beta-D-cellopentaoside). All assay methods were carried out under optimal conditions (Zhou et al., (2007) Gene 395:29-39).
(FIG. 7). For subsequent characterizations, the 1.5% CMC concentration was used. pH studies were performed by dissolving 1.5% CMC in two different buffer systems: 100 mM sodium acetate (pH 3-6.5) and 100 mM sodium phosphate (pH 7-10.5), as shown in FIG. 8. […] Temperature-cofactor studies were performed using 1.5% CMC dissolved in 100 mM sodium phosphate (pH 7) alone, plus 4 mM EDTA (final concentration), or plus 10 mM calcium chloride (final concentration). Pre-incubations took place for 0-5 days at 25° C. or 0-60 min at 60° C. or 70° C.; reactions were terminated by the combination of adding stop solution and boiling for 10 min, and then assays were read at 25° C. (FIG. 9).

[2] = Glucose release from pine sawdust by recombinant enzymes and mixtures; format: biochemical; details: 2% w/v, 18 hrs, 37° C., pH 7
Description: All reactions were performed in 0.1 M sodium acetate buffer containing 10 mM calcium chloride (pH 7). The two feedstock substrates were pine sawdust (=lignin+cellulose+hemicellulose) and beechwood xylan (=lignin+hemicellulose). Feedstocks were tested at 2% w/v (10 mg in 0.5 mL buffer). Reactions were run for 18 hrs at 37° C. with shaking at 220 rpm in vented 1.5 mL plastic tubes.
Protein volumes used per assay were 10 μL of each of the Cell-1, β-glucosidase, and Laccase 6 recombinant protein preparations. These loading volumes provided 8.5, 7.9 and 2.0 μg of each protein, respectively, per reaction. The storage buffer for Cell-1 and β-glucosidase was 0.1 M sodium acetate, 0.15 M sodium chloride, and 0.5 M calcium chloride (pH 5.8). The storage buffer for Laccase 6 was 0.1M boric acid, phosphoric acid, and acetic acid (pH 7.0).
Reactions were stopped after 18 hours by the addition of 10 μL of 0.2 Methylene-diamine tetra-acetic acid and centrifuged for 5 min at 16,000×g. Glucose detection was performed in triplicate on 125 μL aliquots of each reaction supernatant. The entire experiment was replicated three times. Glucose release was measured using the Autokit Glucose reagent kit (Wako Chemical, Richmond, Va.) at a volume of 125 μL per determination. Glucose was quantified based on absorbance at 505 nm relative to glucose standard curves. Standard curves were prepared in eight serial dilutions downward from 0.6 mM in sodium acetate-calcium chloride reaction buffer.

[3] = E. coli-expressed Cell-1 against exoglucanase and β-glucosidase substrates; format: biochemical; details: Ni-purified active fractions
Description: Soluble fractions obtained after 19° C. IPTG induction were subjected to Ni-chromatography for purification. The His-tagged Cell-1 was retained on Ni columns and eluted in a single peak of CMC activity after the introduction of imidazole elution buffer.

[4] = Preliminary stability test of purified recombinant Cell-1; format: physicochemical; details: incubation at 65° C. or 26° C. for 65 hr
Excerpt: An approximately 48 kDa band was present in baculovirus-infected larvae, but absent from uninfected and blank virus controls. Following purification and concentration the recombinant Cell-1 protein migrated as a single band at approximately 48 kDa. […] In addition to endoglucanase activity (the expected activity for Cell-1), exoglucanase and β-glucosidase activities were also investigated using the substrates pNPC and pNPG. All three activities were present in both uninfected and blank-virus-infected T. ni larvae, with exoglucanase and β-glucosidase activity being the strongest. However, only endoglucanase activity remained for purified Cell-1. In agreement with SDS-PAGE results, it was enriched at least 10-fold relative to clarified supernatants of infected larvae.

[5] = Lignin alkali metabolism by RfLacA, HPLC analysis; format: biochemical; details: 1% w/v, pH 7.5, 16 hr, 32° C.
[6] = Characterisation of recombinant RfLacA and RfLacB isoforms; format: biochemical

B1: Cell-1: host-derived β-1,4-endoglucanase (GHF9) from Reticulitermes flavipes, SEQ ID NO.: 2; recombinant, BEVS or E. coli expressed (protein)
chain: MKVFVCLLSALALCQAAYDYKTVLSNSLLFYEAQRSGKLPSDQKVTWRKDSALNDKGQKGEDLTGGYYDAGDFVKFGFPMAYTVTVLAWGVIDYESAYSAAGALDSGRKALKYGTDYFLKAHTAANEFYGQVGQGDVDHAYWGRPEDMTMSRPAYKIDTSKPGSDLAAETAAALAATAIAYKSADATYSNNLITHAKQLFDFANNYRGKYSDSITDAKNFYASGDYKDELVWAAAWLYRATNDNTYLTKAESLYNEFGLGNWNGAFNWDNKISGVQVLLAKLTSKQAYKDKVQGYVDYLISSQKKTPKGLVYIDQWGTLRHAANSALIALQAADLGINAATYRAYAKKQIDYALGDGGRSYVVGFGTNPPVRPHHRSSSCPDAPAVCDWNTYNSAGPNAHVLTGALVGGPDSNDSYTDARSDYISNEVATDYNAGFQSAVAGLLKAGV
modifications: Reticulitermes flavipes; amino acid sequence Beta-1,4-endoglucanase (Cell-1)
notes: recombinant, BEVS or E. coli expressed
[1]
  Km against CMC: 1.496 % w/v
  Vmax against CMC: 1.469 pmol/min/mg
[2]
  glucose release from pine sawdust: 3.70 pmol/min
[3]
  activity against pNPC and pNPG: no activity
[4]
  protein stability in purified form: no protein degradation

B2: RfLacA: recombinant R. flavipes gut laccase isoform 1, clone Lac6, SEQ ID NO.: 8 (protein)
chain: LIRLTIGQAVVSTQSTREAVVSTQSTRDTALSVYRSDAYIMLPCVLLACAIGVASATSVLLNSYLQPNDDIDRNTYLLNAKSNNCARICNGTEAPKICYYQWTIENYVTLSEACDNCPLNVTACYNAQCITADGYERSILSVNRKLPGPSIEVCLRDRVIVDITNNMAGRTTSIHWHGVFQKGSQYMDGVPMVTQCTIHEGDTFRYDFIANNEGTHFWHSHDGLQKLDGVTGNLVVRVPKNFDPNGQLYDFDLPEHKIFISDWLHLSADDHFPGLRATNPGQDANSFLINGRGRTLIGTQSTNTPYAQINVQWGRRYRLRIVGSLCTVCPTQLTIDGHKITVIATDGNSVAPARVDSLIIYSGERYDVVLEATNTEGSYWIHLKGLATCVGSRVYQLGVLQYENTTTNKLHALTPDPGYDGFPQPASYRVLNPENASCSIGSTGLCVTQLANSDPVPRDILTQLPDINYLLQFGFETFDSRSFFKAYDRYFVSPFLELLSSTVNNISFVSPPSPLLSQRGDVPDDILCPTGADGLPQCPGGNSYCTCVHVIKIKLGALVQIILSDQSPKSDLNHPFHIHGHAFYVLGMGQYAAGQTAQDLLNSLKSNVSSVSPAPVLKDTVAVPSGGYAIIKFRPKNPGYWFLHCHFLYHVATGMSVVLQVGETSDYPPTPDGFPKCGSFTPPVNTN
modifications: Reticulitermes flavipes; amino acid sequence Laccase Lacc-6
[5]
  action on lignin alkali: evidence of RfLacA action on lignin
[6]
  oxidation of ABTS and syringaldazine: unable to oxidize
[2]
  glucose release from pine sawdust (in words): No glucose release was detectable
